Reference: IntAct's records for PubMed 29892012

B1: Coiled-coil alpha-helical rod protein 1 (Homo sapiens), Q8TD31 (parent)
chain: MFPPSGSTGLIPPSHFQARPLSTLPRMAPTWLSDIPLVQPPGHQDVSERRLDTQRPQVTMWERDVSSDRQEPGRRGRSWGLEGSQALSQQAEVIVRQLQELRRLEEEVRLLRETSLQQKMRLEAQAMELEALARAEKAGRAEAEGLRAALAGAEVVRKNLEEGSQRELEEVQRLHQEQLSSLTQAHEEALSSLTSKAEGLEKSLSSLETRRAGEAKELAEAQREAELLRKQLSKTQEDLEAQVTLVENLRKYVGEQVPSEVHSQTWELERQKLLETMQHLQEDRDSLHATAELLQVRVQSLTHILALQEEELTRKVQPSDSLEPEFTRKCQSLLNRWREKVFALMVQLKAQELEHSDSVKQLKGQVASLQEKVTSQSQEQAILQRSLQDKAAEVEVERMGAKGLQLELSRAQEARRRWQQQTASAEEQLRLVVNAVSSSQIWLETTMAKVEGAAAQLPSLNNRLSYAVRKVHTIRGLIARKLALAQLRQESCPLPPPVTDVSLELQQLREERNRLDAELQLSARLIQQEVGRAREQGEAERQQLSKVAQQLEQELQQTQESLASLGLQLEVARQGQQESTEEAASLRQELTQQQELYGQALQEKVAEVETRLREQLSDTERRLNEARREHAKAVVSLRQIQRRAAQEKERSQELRRLQEEARKEEGQRLARRLQELERDKNLMLATLQQEGLLSRYKQQRLLTVLPSLLDKKKSVVSSPRPPECSASAPVAAAVPTRESIKGSLSVLLDDLQDLSEAISKEEAVCQGDNLDRCSSSNPQMSS
partner: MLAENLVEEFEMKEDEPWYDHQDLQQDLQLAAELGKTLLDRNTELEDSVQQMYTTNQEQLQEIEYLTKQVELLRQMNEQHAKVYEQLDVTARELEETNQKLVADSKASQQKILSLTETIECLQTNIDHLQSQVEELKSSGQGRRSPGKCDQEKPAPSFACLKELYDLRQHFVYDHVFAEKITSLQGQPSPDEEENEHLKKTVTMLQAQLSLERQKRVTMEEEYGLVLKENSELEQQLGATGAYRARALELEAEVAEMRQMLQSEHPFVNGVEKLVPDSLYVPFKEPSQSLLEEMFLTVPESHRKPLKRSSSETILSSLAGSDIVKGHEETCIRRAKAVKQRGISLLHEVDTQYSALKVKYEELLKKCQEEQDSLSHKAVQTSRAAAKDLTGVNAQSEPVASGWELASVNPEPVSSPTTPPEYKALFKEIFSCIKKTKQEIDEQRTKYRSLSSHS
B2: Zyxin (Homo sapiens), Q15942 (parent)
chain: MAAPRPSPAISVSVSAPAFYAPQKKFGPVVAPKPKVNPFRPGDSEPPPAPGAQRAQMGRVGEIPPPPPEDFPLPPPPLAGDGDDAEGALGGAFPPPPPPIEESFPPAPLEEEIFPSPPPPPEEEGGPEAPIPPPPQPREKVSSIDLEIDSLSSLLDDMTKNDPFKARVSSGYVPPPVATPFSSKSSTKPAAGGTAPLPPWKSPSSSQPLPQVPAPAQSQTQFHVQPQPQPKPQVQLHVQSQTQPVSLANTQPRGPPASSPAPAPKFSPVTPKFTPVASKFSPGAPGGSGSQPNQKLGHPEALSAGTGSPQPPSFTYAQQREKPRVQEKQHPVPPPAQNQNQVRSPGAPGPLTLKEVEELEQLTQQLMQDMEHPQRQNVAVNELCGRCHQPLARAQPAVRALGQLFHIACFTCHQCAQQLQGQQFYSLEGAPYCEGCYTDTLEKCNTCGEPITDRMLRATGKAYHPHCFTCVVCARPLEGTSFIVDQANRPHCVPDYHKQYAPRCSVCSEPIMPEPGRDETVRVVALDKNFHMKCYKCEDCGKPLSIEADDNGCFPLDGHVLCRKCHTARAQT
B3: Coiled-coil alpha-helical rod protein 1 (Homo sapiens), Q8TD31 (parent)
chain: B1 chain
partner: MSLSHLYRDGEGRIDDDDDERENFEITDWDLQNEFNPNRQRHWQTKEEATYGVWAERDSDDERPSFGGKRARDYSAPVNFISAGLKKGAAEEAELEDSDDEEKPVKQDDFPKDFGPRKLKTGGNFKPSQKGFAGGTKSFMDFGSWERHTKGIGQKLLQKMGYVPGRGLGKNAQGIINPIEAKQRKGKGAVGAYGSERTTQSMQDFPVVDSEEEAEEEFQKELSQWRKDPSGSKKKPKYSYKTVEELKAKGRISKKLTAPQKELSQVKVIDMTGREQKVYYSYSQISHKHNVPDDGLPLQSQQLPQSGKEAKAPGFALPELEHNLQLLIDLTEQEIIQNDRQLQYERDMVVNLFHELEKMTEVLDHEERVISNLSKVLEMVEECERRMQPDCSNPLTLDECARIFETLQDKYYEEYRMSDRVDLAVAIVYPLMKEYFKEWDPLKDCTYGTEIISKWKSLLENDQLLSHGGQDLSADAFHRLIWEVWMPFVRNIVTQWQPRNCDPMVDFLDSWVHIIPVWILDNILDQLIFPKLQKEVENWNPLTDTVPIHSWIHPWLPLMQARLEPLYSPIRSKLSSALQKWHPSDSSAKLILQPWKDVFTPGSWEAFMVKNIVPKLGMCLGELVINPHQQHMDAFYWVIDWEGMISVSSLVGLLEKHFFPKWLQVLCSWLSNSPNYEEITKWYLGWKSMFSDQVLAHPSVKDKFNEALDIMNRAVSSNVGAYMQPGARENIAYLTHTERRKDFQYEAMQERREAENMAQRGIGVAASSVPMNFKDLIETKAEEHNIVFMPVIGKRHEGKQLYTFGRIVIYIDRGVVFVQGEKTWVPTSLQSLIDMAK
B4: Coiled-coil alpha-helical rod protein 1 (Homo sapiens), Q8TD31 (parent)
chain: B1 chain
partner: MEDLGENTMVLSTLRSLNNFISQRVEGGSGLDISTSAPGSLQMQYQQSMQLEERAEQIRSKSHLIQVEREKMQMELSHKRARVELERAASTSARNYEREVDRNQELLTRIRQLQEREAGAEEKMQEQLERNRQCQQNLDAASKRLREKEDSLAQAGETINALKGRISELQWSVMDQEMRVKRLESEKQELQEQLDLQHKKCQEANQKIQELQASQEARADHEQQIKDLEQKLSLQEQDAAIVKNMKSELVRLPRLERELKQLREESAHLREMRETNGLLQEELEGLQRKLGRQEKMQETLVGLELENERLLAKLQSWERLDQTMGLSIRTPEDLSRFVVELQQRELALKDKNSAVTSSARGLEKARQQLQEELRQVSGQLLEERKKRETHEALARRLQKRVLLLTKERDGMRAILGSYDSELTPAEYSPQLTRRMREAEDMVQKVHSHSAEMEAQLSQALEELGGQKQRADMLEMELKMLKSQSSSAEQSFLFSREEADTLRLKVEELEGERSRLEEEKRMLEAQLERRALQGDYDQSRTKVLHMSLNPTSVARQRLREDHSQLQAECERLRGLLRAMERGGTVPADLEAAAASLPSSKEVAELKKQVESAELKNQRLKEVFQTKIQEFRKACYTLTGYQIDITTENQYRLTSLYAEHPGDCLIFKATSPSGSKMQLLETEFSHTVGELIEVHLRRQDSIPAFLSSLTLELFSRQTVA

Variants of: B1
Conditions: with cdr2_human CDR2, Q01850

| Variant | effect of a mutation on the interaction |
| --- | --- |
| W337R | disrupting interaction strength |

Variants of: B2
Conditions: with pf21a_human PHF21A

| Variant | effect of a mutation on the interaction |
| --- | --- |
| R167G | with no effect |

Variants of: B3
Conditions: with tfp11_human TFIP11, Q9UBB9

| Variant | effect of a mutation on the interaction |
| --- | --- |
| W337R | with no effect |

Variants of: B4
Conditions: with md1l1_human MAD1L1, Q9Y6D9

| Variant | effect of a mutation on the interaction |
| --- | --- |
| W337R | disrupting interaction strength |
